Key:
[1] = test system: human LPA gene (Genbank number: NM_005577.4); assay: Inhibitory activity against LPA mRNA, psiCHECK-2 dual-luciferase reporter vector in Huh7 cells; format: cell-based; conditions: Huh7 cells transfected with LPA_psiCHECK-2 plasmid, RNAiMAX transfection
Outline: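 Huh7 cells transfected with psiCHECK-2 carrying human LPA, then treated next day with compounds (3 concentrations) delivered by RNAiMAX. Dual-Glo readout of firefly and Renilla luciferase per well. Percent inhibition calculated from the reporter ratio relative to the RNAiMAX control.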

[2] = test system: LPA mRNA; assay: In vivo efficacy in LPA-HDI mouse model (liver LPA mRNA); parameters: species or system BALB/c mouse; conditions: 3 mg/kg single subcutaneous injection, Day 14, relative to PBS blank group, 4 mice per group
Protocol: The knockdown effect of the test double-stranded siRNA conjugate on the target gene LPA upon entry into the mouse is evaluated by rapid high-pressure injection of the physiological saline containing recombinant plasmid pcDNA-LPA carrying the target gene via the tail vein.
pcDNA-LPA plasmid, BALB/c mouse, PBS (phosphate buffer), and conjugates of the present invention.
Six-week-old female BALB/c mice were ordered and acclimated/quarantined for three days upon arrival in the animal room.
On Day 0, the mice were randomly grouped based on body weight data. After grouping, all mice were given a single administration via subcutaneous injection, with a dose volume of 10 mL/kg. Mice in Group 1 received PBS; mice in the other groups received the conjugates (dissolved in PBS).
On Day 13 post-administration, all mice were injected with normal saline containing the pcDNA-LPA plasmid via the tail vein within 5 seconds. The injection volume (mL) = mouse body weight (g) × 8%. The amount of plasmid injected per mouse was 10 µg.
On Day 14 post-administration, all groups of mice were euthanized by CO2 inhalation, and 2 liver samples were collected from each mouse. Liver samples were treated overnight with RNAlater at 4 °C, then RNAlater was removed, and stored at -80 °C for detection of LPA gene expression levels.

[3] = test system: hPBMCs; assay: Immunogenicity test in hPBMCs (IL-6 and TNF-α ELISA of supernatant); format: cell-based, human; conditions: 18-20 h
Protocol: 1 Experimental material • 1.1 Double-stranded siRNA conjugates • 1.2 hPBMCs, purchased from Shanghai Sailybio Medical Co., LTD. • 1.3 Main reagents: Penicillin-Streptomycin (Cat. No.: 15140122), RNase-free water (Cat. No.: AM9938), IL-6 ELISA kit (Cat. No.: 555220), TNF-α ELISA kit (Cat. No.: 555212), LPS (Cat. No.: L2630), etc. 2 Experimental method • 2.1 Compound Preparation: Compounds were prepared as stock solutions with enzyme-free water. Compound weight = powder weight * purity. The concentration of prepared solutions was 900 µg/mL, followed by three-fold serial dilution with enzyme-free water. Each concentration was diluted 10-fold with 1640 medium, resulting in a final enzyme-free water content of 5.0%. • 2.2 Experimental procedure: • 2.2.1 PBMC cells were resuscitated one day in advance and incubated overnight in 1640 complete medium. • 2.2.2 On the day of the experiment, PBMC cells were centrifuged at 300 × g for 8 minutes, and the cell density was adjusted to 1.6 × 10^6 mL with 1640 complete medium. The cells were then added to a 96-well plate, 125 µL per well, and incubated in a 37 °C, 5% CO2 incubator for 15 minutes. • 2.2.3 The diluted test compounds were added to the 96-well plate according to the plate map, all in duplicate, 125 µL for each well; the positive control group and the blank group were added with an equal volume of 1640 complete culture medium containing the same amount of enzyme-free water. • 2.2.4 After gently shaking, the well plates were incubated in an incubator at 37 °C for 18-20 h. The supernatant was collected by centrifugation, and secretions of TNF-α and IL-6 were detected by ELISA. • 2.2.5 Data were analyzed using GraphPad Prism 8 software. 3 Experimental results Table 10. IL-6 and TNF-α levels in the cell supernatant of donor 1 hPBMCs treated with different doses of test compounds

[4] = Melting temperature (Tm) by UV absorption at 260 nm; format: physicochemical; conditions: phosphate buffer solution; average of at least two independent measurements
Protocol: The Tm value was determined by recording the change in UV absorption at 260 nm of DNA/RNA in phosphate buffer solution as the temperature increased.
Table 6 Melting temperature (Tm) test instrument parameters
The melting temperature (Tm) was calculated from the first derivative of the smoothed heating curve, and the reported value was the average of at least two independent measurements. Table 7 Melting temperatures (Tm) of conjugates of the present disclosure

Substance: Z43: siRNA conjugate: sense SEQ ID NO:49, ligand D01 at 3' end of sense strand, antisense SEQ ID NO:81 (sense CAGCCCCTTATTGTTATACGA; antisense NCGTATNACAATAAGGGGCNGTT; ligand D01 at sense 3' end; listed as RNA; modified_base 1: mod_base = OTHER; note = 2'-O-methylcytidine; modified_base 2: mod_base = OTHER; note = 2'-O-methyladenosine; modified_base 3: mod_base = OTHER; note = 2'-O-methylguanosine; modified_base 4..7: mod_base = OTHER; note = 2'-O-me; note = n is B30; note = 2'-deoxycytidine; modified_base 4: mod_base = OTHER; note = 2'-O-methyluridine; m)
- EC50 [1]: 0.09 nM
- % Downregulation of LPA mRNA [2]: 84.5%
- IL-6 ([3]; donor 1 hPBMCs, 5 µg/mL): 1270.9 pg/mL
- TNF alpha ([3]; donor 1 hPBMCs, 5 µg/mL): 35.4 pg/mL
- IL-6 ([3]; donor 1 hPBMCs, 15 µg/mL): 1339.1 pg/mL
- TNF alpha ([3]; donor 1 hPBMCs, 15 µg/mL): 36.9 pg/mL
- IL-6 ([3]; donor 1 hPBMCs, 45 µg/mL): 1314.4 pg/mL
- TNF alpha ([3]; donor 1 hPBMCs, 45 µg/mL): 32.2 pg/mL

Substance: Z47: siRNA conjugate: sense SEQ ID NO:51, ligand D01 at 3' end of sense strand, antisense SEQ ID NO:83 (sense CCTGCCAAGCTTGGTCATCTA; antisense NAGATGNCCAAGCTTGGCNGGTT; ligand D01 at sense 3' end; listed as RNA; modified_base 1..2: mod_base = OTHER; note = 2'-O-methylcytidine; modified_base 3: mod_base = OTHER; note = 2'-O-methyluridine; modified_base 4: mod_base = OTHER; note = 2'-O-methylguanosine; modified_base 5..6: mod_base = OTHER; note = 2'-O-m; modified_base 1: mod_base = OTHER; note = n is B33; modified_base 2: mod_base = OTHER; note = 2'-deoxyadenosine; note = 2'-O-methyladenosine)
- EC50 [1]: 0.2 nM
- % Downregulation of LPA mRNA [2]: 64.0%
- IL-6 ([3]; donor 2 hPBMCs, 5 µg/mL): 49.9 pg/mL
- TNF alpha ([3]; donor 2 hPBMCs, 5 µg/mL): 15.6 pg/mL
- IL-6 ([3]; donor 2 hPBMCs, 15 µg/mL): 0.0 pg/mL
- TNF alpha ([3]; donor 2 hPBMCs, 15 µg/mL): 3.4 pg/mL
- IL-6 ([3]; donor 2 hPBMCs, 45 µg/mL): 16.7 pg/mL
- TNF alpha ([3]; donor 2 hPBMCs, 45 µg/mL): 9.5 pg/mL

Substance: Z48: siRNA conjugate: sense SEQ ID NO:51, ligand D01 at 3' end of sense strand, antisense SEQ ID NO:84 (sense CCTGCCAAGCTTGGTCATCTA; antisense NAGATGNCCAAGCTTGGCNGGTT; ligand D01 at sense 3' end; listed as RNA; modified_base 1..2: mod_base = OTHER; note = 2'-O-methylcytidine; modified_base 3: mod_base = OTHER; note = 2'-O-methyluridine; modified_base 4: mod_base = OTHER; note = 2'-O-methylguanosine; modified_base 5..6: mod_base = OTHER; note = 2'-O-m; modified_base 1: mod_base = OTHER; note = n is B34; modified_base 2: mod_base = OTHER; note = 2'-deoxyadenosine; note = 2'-O-methyladenosine)
- EC50 [1]: 0.09 nM
- % Downregulation of LPA mRNA [2]: 64.0%
- IL-6 ([3]; donor 2 hPBMCs, 5 µg/mL): 32.0 pg/mL
- TNF alpha ([3]; donor 2 hPBMCs, 5 µg/mL): 15.3 pg/mL
- IL-6 ([3]; donor 2 hPBMCs, 15 µg/mL): 49.5 pg/mL
- TNF alpha ([3]; donor 2 hPBMCs, 15 µg/mL): 20.4 pg/mL
- IL-6 ([3]; donor 2 hPBMCs, 45 µg/mL): 1.1 pg/mL
- TNF alpha ([3]; donor 2 hPBMCs, 45 µg/mL): 5.9 pg/mL

Substance: Z54: siRNA conjugate: sense SEQ ID NO:49, ligand D01 at 3' end of sense strand, antisense SEQ ID NO:90 (sense CAGCCCCTTATTGTTATACGA; antisense NCGTATNACAATAAGGGGCNGTT; ligand D01 at sense 3' end; listed as RNA; modified_base 1: mod_base = OTHER; note = 2'-O-methylcytidine; modified_base 2: mod_base = OTHER; note = 2'-O-methyladenosine; modified_base 3: mod_base = OTHER; note = 2'-O-methylguanosine; modified_base 4..7: mod_base = OTHER; note = 2'-O-me; note = n is B33; note = 2'-fluorocytidine; modified_base 4: mod_base = OTHER; note = 2'-O-methyluridine;)
- Melting temperature Tm [4]: 69.00 °C

Substance: Z56: siRNA conjugate: sense SEQ ID NO:43, ligand D01 at 3' end of sense strand, antisense SEQ ID NO:92 (sense CAGCCCCTTATTGTTANACGA; antisense TCTCGTATAACAATAAGGGGCTG; ligand D01 at sense 3' end; listed as RNA; modified_base 1: mod_base = OTHER; note = 2'-O-methylcytidine; modified_base 2: mod_base = OTHER; note = 2'-O-methyladenosine; modified_base 3: mod_base = OTHER; note = 2'-O-methylguanosine; modified_base 4..7: mod_base = OTHER; note = 2'-O-me; note = 2'-O-methyluridine; modified_base 4: mod_base = OTHER; note = 2'-fluorocytidine; modified_base 5: mod_base = OTHER; note = 2'-O-methylg)
- Melting temperature Tm [4]: 77.25 °C

From patent publication EP4707393A1, “DOUBLE-STRANDED SIRNA, CONJUGATE THEREOF AND USE THEREOF” (CMS Research & Development Pte. Ltd., priority 2023, dated 2024)
